In the supplement of paper PMC5998384:

Tests used:
HeLa Kyoto [1] = assay: melting temperature (median over replicates), in situ; higher = more thermally stable
HeLa Kyoto [2] = assay: solubility change mitosis vs G1/S (difference of NP-40 vs SDS log2 ratios) (log2 ratio difference); higher = more soluble in mitosis
HeLa Kyoto [3] = assay: thermal stability score vs G1/S (z-score of summed log2 fold changes over temperatures); higher = more thermally stable than in G1/S
HeLa Kyoto [4] = assay: solubility in G1/S (NP-40 vs SDS abundance) (log2 ratio); higher = more soluble; conditions: cell cycle stage: G1/S
[5] = cell cycle stage: early G1 (4.5 h after nocodazole release)
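Wherever melting temperature (median over replicates), in situ is given: HeLa Kyoto cells synchronized by double thymidine or nocodazole block, proteins quantified by TMT10plex mass spectrometry, three independent biological replicates.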
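Wherever solubility change mitosis vs G1/S (difference of NP-40 vs SDS log2 ratios) is given: synchronized HeLa Kyoto cells (double thymidine block for G1/S, nocodazole release for mitosis), protein amounts in NP-40 versus SDS lysates quantified by mass spectrometry, three biological replicates.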
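Wherever solubility in G1/S (NP-40 vs SDS abundance) is given: HeLa Kyoto cells arrested at G1/S by double thymidine block, proteins quantified by TMT10plex mass spectrometry in mild NP-40 versus SDS extracts, three biological replicates.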
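Wherever thermal stability score vs G1/S (z-score of summed log2 fold changes over temperatures) is given: synchronized HeLa Kyoto cells, proteins quantified by TMT10plex mass spectrometry, three biological replicates, mitosis taken 0.5 h after nocodazole release, G1/S directly after double thymidine block.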

Sequence	melting temperature (HeLa Kyoto [1]; cell cycle stage: G1/S) [°C]	melting temperature (HeLa Kyoto [1]; cell cycle stage: mitosis) [°C]	solubility change mitosis (log2) (HeLa Kyoto [2])	thermal stability score (HeLa Kyoto [3]; [5])	thermal stability score (HeLa Kyoto [3]; cell cycle stage: mitosis)	solubility in G1/S (log2) (HeLa Kyoto [4])
MTEGTCLRRRGGPYKTEPATDLGRWRLNCERGRQTWTYLQDERAGREQTGLEAYALGLDTKNYFKDLPKAHTAFEGALNGMTFYVGLQAEDGHWTGDYGGPLFLLPGLLITCHVARIPLPAGYREEIVRYLRSVQLPDGGWGLHIEDKSTVFGTALNYVSLRILGVGPDDPDLVRARNILHKKGGAVAIPSWGKFWLAVLNVYSWEGLNTLFPEMWLFPDWAPAHPSTLWCHCRQVYLPMSYCYAVRLSAAEDPLVQSLRQELYVEDFASIDWLAQRNNVAPDELYTPHSWLLRVVYALLNLYEHHHSAHLRQRAVQKLYEHIVADDRFTKSISIGPISKTINMLVRWYVDGPASTAFQEHVSRIPDYLWMGLDGMKMQGTNGSQIWDTAFAIQALLEAGGHHRPEFSSCLQKAHEFLRLSQVPDNPPDYQKYYRQMRKGGFSFSTLDCGWIVSDCTAEALKAVLLLQEKCPHVTEHIPRERLCDAVAVLLNMRNPDGGFATYETKRGGHLLELLNPSEVFGDIMIDYTYVECTSAVMQALKYFHKRFPEHRAAEIRETLTQGLEFCRRQQRADGSWEGSWGVCFTYGTWFGLEAFACMGQTYRDGTACAEVSRACDFLLSRQMADGGWGEDFESCEERRYLQSAQSQIHNTCWAMMGLMAVRHPDIEAQERGVRCLLEKQLPNGDWPQENIAGVFNKSCAISYTSYRNIFPIWALGRFSQLYPERALAGHP [LSS]	52.7	52.6	0.0123	0.214	0.242	-0.253
MGKKGKKEKKGRGAEKTAAKMEKKVSKRSRKEEEDLEALIAHFQTLDAKRTQTVELPCPPPSPRLNASLSVHPEKDELILFGGEYFNGQKTFLYNELYVYNTRKDTWTKVDIPSPPPRRCAHQAVVVPQGGGQLWVFGGEFASPNGEQFYHYKDLWVLHLATKTWEQVKSTGGPSGRSGHRMVAWKRQLILFGGFHESTRDYIYYNDVYAFNLDTFTWSKLSPSGTGPTPRSGCQMSVTPQGGIVVYGGYSKQRVKKDVDKGTRHSDMFLLKPEDGREDKWVWTRMNPSGVKPTPRSGFSVAMAPNHQTLFFGGVCDEEEEESLSGEFFNDLYFYDATRNRWFEGQLKGPKSEKKKRRRGRKEEPEGGSRPACGGAGTQGPVQLVKEVVAEDGTVVTIKQVLTAPGSAGQPRSEDEDSLEEAGSPAPGPCPRSNAMLAVKHGVLYVYGGMFEAGDRQVTLSDLHCLDLHRMEAWKALVEMDPETQEWLEETDSEEDSEEVEGAEGGVDDEDSGEESGAED [KLHDC4]	49.7	48.9	-0.00461	-0.0688	-0.148	-0.239
MAELDPFGAPAGAPGGPALGNGVAGAGEEDPAAAFLAQQESEIAGIENDEAFAILDGGAPGPQPHGEPPGGPDAVDGVMNGEYYQESNGPTDSYAAISQVDRLQSEPESIRKWREEQMERLEALDANSRKQEAEWKEKAIKELEEWYARQDEQLQKTKANNRVADEAFYKQPFADVIGYVTNINHPCYSLEQAAEEAFVNDIDESSPGTEWERVARLCDFNPKSSKQAKDVSRMRSVLISLKQAPLVH [CLTA]	54.7	–	0.362	-6.01	-4.14	0.31
MLSSTAMYSAPGRDLGMEPHRAAGPLQLRFSPYVFNGGTILAIAGEDFAIVASDTRLSEGFSIHTRDSPKCYKLTDKTVIGCSGFHGDCLTLTKIIEARLKMYKHSNNKAMTTGAIAAMLSTILYSRRFFPYYVYNIIGGLDEEGKGAVYSFDPVGSYQRDSFKAGGSASAMLQPLLDNQVGFKNMQNVEHVPLSLDRAMRLVKDVFISAAERDVYTGDALRICIVTKEGIREETVSLRKD [PSMB1]	57	60.1	-0.098	-1.78	-1.88	-0.00543
MAEQEPTAEQLAQIAAENEEDEHSVNYKPPAQKSIQEIQELDKDDESLRKYKEALLGRVAVSADPNVPNVVVTGLTLVCSSAPGPLELDLTGDLESFKKQSFVLKEGVEYRIKISFRVNREIVSGMKYIQHTYRKGVKIDKTDYMVGSYGPRAEEYEFLTPVEEAPKGMLARGSYSIKSRFTDDDKTDHLSWEWNLTIKKDWKD [ARHGDIA]	51.5	51.7	-0.109	0.408	-2.01	0.25
MKSRFSTIDLRAVLAELNASLLGMRVNNVYDVDNKTYLIRLQKPDFKATLLLESGIRIHTTEFEWPKNMMPSSFAMKCRKHLKSRRLVSAKQLGVDRIVDFQFGSDEAAYHLIIELYDRGNIVLTDYEYVILNILRFRTDEADDVKFAVRERYPLDHARAAEPLLTLERLTEIVASAPKGELLKRVLNPLLPYGPALIEHCLLENGFSGNVKVDEKLETKDIEKVLVSLQKAEDYMKTTSNFSGKGYIIQKREIKPSLEADKPVEDILTYEEFHPFLFSQHSQCPYIEFESFDKAVDEFYSKIEGQKIDLKALQQEKQALKKLDNVRKDHENRLEALQQAQEIDKLKGELIEMNLQIVDRAIQVVRSALANQIDWTEIGLIVKEAQAQGDPVASAIKELKLQTNHVTMLLRNPYLLSEEEDDDVDGDVNVEKNETEPPKGKKKKQKNKQLQKPQKNKPLLVDVDLSLSAYANAKKYYDHKRYAAKKTQKTVEAAEKAFKSAEKKTKQTLKEVQTVTSIQKARKVYWFEKFLWFISSENYLIIGGRDQQQNEIIVKRYLTPGDIYVHADLHGATSCVIKNPTGEPIPPRTLTEAGTMALCYSAAWDARVITSAWWVYHHQVSKTAPTGEYLTTGSFMIRGKKNFLPPSYLMMGFSFLFKVDESCVWRHQGERKVRVQDEDMETLASCTSELISEEMEQLDGGDTSSDEDKEEHETPVEVELMTQVDQEDITLQSGRDELNEELIQEESSEDEGEYEEVRKDQDSVGEMKDEGEETLNYPDTTIDLSHLQPQRSIQKLASKEESSNSSDSKSQSRRHLSAKERREMKKKKLPSDSGDLEALEGKDKEKESTVHIETHQNTSKNVAAVQPMKRGQKSKMKKMKEKYKDQDEEDRELIMKLLGSAGSNKEEKGKKGKKGKTKDEPVKKQPQKPRGGQRVSDNIKKETPFLEVITHELQDFAVDDPHDDKEEQDLDQQGNEENLFDSLTGQPHPEDVLLFAIPICAPYTTMTNYKYKVKLTPGVQKKGKAAKTALNSFMHSKEATAREKDLFRSVKDTDLSRNIPGKVKVSAPNLLNVKRK [NEMF]	50.8	50.2	-0.0231	-0.477	-1.01	-0.354
MEPRAVGVSKQDIREQIWGYMESQNLADFPRPVHHRIPNFKGSYLACQNIKDLDVFARTQEVKVDPDKPLEGVRLLVLQSKKTLLVPTPRLRTGLFNKITPPPGATKDILRKCATSQGVRNYSVPIGLDSRVLVDLVVVGSVAVSEKGWRIGKGEGYADLEYAMMVSMGAVSKETPVVTIVHDCQVVDIPEELVEEHDITVDYILTPTRVIATGCKRPKPMGITWFKISLEMMEKIPILRSLRAREQQAGKDVTLQGEHQHLPEPGCQQTVPLSVGRRPPDTPGPETNSMEAAPGSPPGEGAPLAADVYVGNLPGDARVSDLKRALRELGSVPLRLTWQGPRRRAFLHYPDSAAAQQAVSCLQGLRLGTDTLRVALARQQRDK [MTHFSD]	54.7	53.5	0.0284	-0.334	-0.971	-0.0248
MSHGPSPRLAESPQLSKGSLLTILGSPSPERMGPADSLPPTPPSGTPSPGPPPALPLPPAPALLADGDWESREELRLRELEEARARAAQMEKTMRRWSDCTANWREKWSKVRAERNRAREEVRQLRQRLDALTKELAGARRERQEAQGECEARGRELARLRGARGVADQTRDGPEPEAEREPVRDVGSERPPGSQELELVESLLKSMPEESEDCWEARSLGAGGPRGSSGRQERSRLPWEDTAATEEEASKLTALRLRLDESQKVLLKEREDKLALSRNIEKLEGELSQWKIKYEELSKTKQEMLKQLSILKEAHQDELGRMSEDLEDELGARSSMDRKMAELRGEMERLQAENAAEWGRRERLETEKLGLERENKKLRAQVGDLEEALARRRRQTASALDCDLRASQAALFEKNKELADLKHVHGKLKKQFQEKVAELAHANRRVEQHEAEVKKLRLRVEELKKELAQAEDELDEAHNQARKLQRSLDEQTEQSENLQVQLEHLQSRLRRQQQNAPLFGKIRSARFGTEEAEDGTSDLDEDEDLQIQVA [CCDC102A]	50.8	49.3	0.0825	-0.855	-0.192	0.448
